Substitutions are numbered along the chain they refer to. Names and notes keep the numbering of the source. “Also recorded” adds a separate entry of the source. Ends that are not written are not given here.
Experiments:
[1] = target: P450cam (Pseudomonas putida) (UniProt P00183); assay: fluorescence titration; details: cited from earlier work
metmyoglobin = metmyoglobin (UniProt P02144); assay: fluorescence titration; details: cited from earlier work
cytochrome c = cytochrome c (UniProt P99999); assay: fluorescence titration; details: cited from earlier work
cytochrome c, sequence (P99999 2-105): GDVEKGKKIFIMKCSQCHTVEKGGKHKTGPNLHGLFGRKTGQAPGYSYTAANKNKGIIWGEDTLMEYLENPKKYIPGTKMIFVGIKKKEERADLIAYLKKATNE

[2] = target: T1, Alexa 488-T70C-b5:P450 17A1 complex (Homo sapiens, UniProt P00167+P05093, T70C); assay: Peptide addition to Alexa 488-T70C-b5:P450 17A1 complex (gain of fluorescence); format: binding; details: even at a concentration of 160 μM; data not presented
T1 construct: made in house; host or cells: Escherichia coli (P450 17A1 in JM109; T70C-b5 plasmid in DH5α)
T1 sequence (P00167 whole entry T70C, one chain of several): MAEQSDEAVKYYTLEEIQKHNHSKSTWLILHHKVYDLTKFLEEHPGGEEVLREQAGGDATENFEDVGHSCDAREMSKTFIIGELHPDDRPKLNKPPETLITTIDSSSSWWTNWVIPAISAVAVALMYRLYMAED
Text: Peptides were obtained corresponding to the putative binding sites of P450 17A1 and b5 (see Experimental procedures section and Fig. S7).

P450 17A1 = target: T2, P450 17A1 (Homo sapiens, UniProt P05093); assay: Inhibition of reconstituted P450 17A1 steroid oxidation reactions by peptides; format: biochemical
T2 construct: made in house; host or cells: Escherichia coli (P450 17A1 in JM109)
T2 sequence (P00167 whole entry partner, one chain of several): as the sequence (P00167 whole entry T70C, one chain of several) above, with C70T counted along it
Text: The “b5 peptide” corresponds to residues 43 to 52 of b5, and the “17A1 peptide” corresponds to residues 347 to 358 of P450 17A1 (see Experimental procedures section and Fig. S7).

[3] = substrate: CC(=O)[C@H]1CC[C@H]2[C@@H]3CCC4=CC(=O)CC[C@]4(C)[C@H]3CC[C@]12C; assay: purified protein, by the assay type; details: other: 17α-hydroxylation, pH 7.4, 30.0 °C
[4] = substrate: CC(=O)C1CCC2C3CC=C4C[C@@H](O)CC[C@]4(C)C3CC[C@]12C; assay: purified protein, by the assay type; details: other: 17α-hydroxylation, pH 7.4, 30.0 °C
[5] = substrate: CC(=O)[C@@]1(O)CCC2C3CC=C4C[C@@H](O)CC[C@]4(C)C3CC[C@@]21C; assay: purified protein, by the assay type; details: other: lyase reaction (conversion to androstenedione or DHEA), pH 7.4, 30.0 °C
WT P450 17A1 [6] = target: T3, WT P450 17A1 (human, UniProt P05093 1-508); assay: other fluorescence titration; as a1, with pregnenolone present at 10 μM; details: both partners purified
T3 construct: cytochrome P450 17A1, human; approximate Mr 57 kDa; also called cytochrome P450 17A1; CYP17A1; source: E. coli JM109 (pCW vector), purified (Ni2+-NTA)
T3 sequence (looked up): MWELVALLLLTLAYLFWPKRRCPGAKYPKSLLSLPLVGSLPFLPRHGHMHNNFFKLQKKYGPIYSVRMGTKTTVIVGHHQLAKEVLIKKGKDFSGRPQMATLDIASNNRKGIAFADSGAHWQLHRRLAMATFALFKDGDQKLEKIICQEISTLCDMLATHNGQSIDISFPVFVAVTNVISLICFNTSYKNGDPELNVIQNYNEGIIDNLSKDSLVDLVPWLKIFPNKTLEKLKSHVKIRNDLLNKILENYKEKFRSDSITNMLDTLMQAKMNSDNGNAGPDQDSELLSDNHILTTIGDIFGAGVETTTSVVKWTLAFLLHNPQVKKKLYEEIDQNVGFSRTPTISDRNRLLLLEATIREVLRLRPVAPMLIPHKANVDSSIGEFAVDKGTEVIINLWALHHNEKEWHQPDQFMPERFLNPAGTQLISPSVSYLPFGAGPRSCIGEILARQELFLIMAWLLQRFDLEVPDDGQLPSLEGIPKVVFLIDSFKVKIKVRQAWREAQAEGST

WT P450 17A1 [7] = target: T3, WT P450 17A1; assay: other fluorescence titration; as a1, with progesterone present at 10 μM; details: both partners purified
WT P450 17A1 [8] = target: T3, WT P450 17A1; assay: stopped-flow fluorescence; dissociation: preformed Alexa 488-T70C-b5:P450 17A1 complex mixed with 30 μM unlabeled b5; excitation 488 nm, emission >530 nm, single exponential; details: both partners purified
WT P450 17A1 [9] = target: T3, WT P450 17A1; assay: other fluorescence titration; as a1, with 17-OH progesterone present at 10 μM; details: both partners purified
WT P450 17A1 [10] = target: T3, WT P450 17A1; assay: other fluorescence titration; as a1, with 17-OH pregnenolone present at 10 μM; details: both partners purified
WT P450 17A1 [11] = target: T3, WT P450 17A1; assay: other fluorescence titration; 50 nM Alexa 488-T70C-b5 in 100 mM potassium phosphate pH 7.4 titrated with P450 17A1 (WT or variant); excitation 480 nm, emission 513 nm; quadratic fit; no substrate; no phospholipid vesicles; apparent Kd; details: both partners purified
WT P450 17A1 [12] = target: T4, WT P450 17A1 (Homo sapiens, UniProt P05093); format: biochemical; parameters: made in house; host or cells: Escherichia coli (P450 17A1 in JM109)
T4 sequence (P05093 1-508): T3 sequence (looked up)
Experimental: Figure S4. Stimulation of lyase activities by b5, T70C- b5, and NanoTemper Blue-T70C-b5. Catalytic assays for the lyase reactions were performed and analyzed as described in the main text.

metmyoglobin, sequence (P02144 2-154): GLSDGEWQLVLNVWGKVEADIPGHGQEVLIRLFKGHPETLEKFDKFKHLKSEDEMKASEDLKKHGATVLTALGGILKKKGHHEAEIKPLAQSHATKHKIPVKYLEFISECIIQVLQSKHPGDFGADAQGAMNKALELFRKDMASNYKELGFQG
P450cam (Pseudomonas putida), sequence (P00183 2-415): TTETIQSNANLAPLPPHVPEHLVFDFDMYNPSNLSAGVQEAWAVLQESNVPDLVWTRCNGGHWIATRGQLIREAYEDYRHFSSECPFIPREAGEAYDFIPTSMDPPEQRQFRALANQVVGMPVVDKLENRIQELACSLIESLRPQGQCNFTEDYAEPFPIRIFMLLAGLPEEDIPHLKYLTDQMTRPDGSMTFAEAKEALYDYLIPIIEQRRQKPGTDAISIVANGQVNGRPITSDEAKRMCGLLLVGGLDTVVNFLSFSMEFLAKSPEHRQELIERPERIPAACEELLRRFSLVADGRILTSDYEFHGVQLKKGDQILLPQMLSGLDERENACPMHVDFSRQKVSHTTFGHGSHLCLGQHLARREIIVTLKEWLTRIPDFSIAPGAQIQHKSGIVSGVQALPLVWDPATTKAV

Question: With “cytochrome b5 (T65C labeled) (from UniProt P00173)” as the molecule, how does the Kd [1] read?
Answer: The Kd was 1000 nM.

Question: What about the Kd (metmyoglobin) of the same molecule?
Answer: The Kd was 1000 nM.

Question: What about the Kd (cytochrome c) of the same molecule?
Answer: The Kd was 1000 nM.

Question: Which “gain of fluorescence of Alexa 488-T70C-b5:P450 17A1 complex” value [2] does the source give for “EHPGGEEVLRE [b5 peptide, E H P G G E E V L R E]” here?
Answer: The value was “did not result in a gain of fluorescence”.

Question: For “RNRLLLLEATIR [P450 peptide, R N R L L L L E A T I R]”, which “inhibition of progesterone 17α-hydroxylation” value (P450 17A1) is on record?
Answer: The value was “only at the very highest concentration”.

Question: And the “inhibition of lyase reaction (17α-OH pregnenolone)” value (P450 17A1; b5 present at 10-fold higher concentration than P450, listed as P450 17A1 peptide)?
Answer: Its value is “more inhibitory to the lyase reaction (17α-OH pregnenolone) than the b5 peptide; also recorded: weak inhibition”.

B1: WT P450 17A1 (Homo sapiens) (protein)
chain: T3 sequence (looked up)
Question: With B1 as the molecule, how does the Km ([3]; WT) read?
Answer: Its Km is 7.8 ± 1.4 µM.

Question: And the kcat ([3]; WT)?
Answer: The kcat was 0.107 ± 0.00833 s⁻¹.

Question: What about the kcat/Km ([3]; WT) of the same molecule?
Answer: The kcat/Km was 13700 M⁻¹ s⁻¹.

Question: And the Km ([4]; WT)?
Answer: The Km was 0.47 ± 0.20 µM.

Question: And the kcat ([4]; WT)?
Answer: Its kcat is 0.0147 ± 0.000833 s⁻¹.

Question: And the kcat/Km ([4]; WT)?
Answer: The kcat/Km was 31700 M⁻¹ s⁻¹.

Question: What about the Km ([5]; WT) of the same molecule?
Answer: Its Km is 6.7 ± 2.1 µM.

Question: What about the kcat ([5]; WT) of the same molecule?
Answer: The kcat was 0.0917 s⁻¹.

Question: And the kcat/Km ([5]; WT)?
Answer: Its kcat/Km is 13800 M⁻¹ s⁻¹.

B2: P450 17A1 E305G variant (Homo sapiens; E305G) (protein)
chain: T3 sequence (looked up) with E305G
Question: For B2, which Km ([3]; E305G) is on record?
Answer: The Km was 3.1 ± 0.4 µM.

Question: What about the kcat ([3]; E305G) of the same molecule?
Answer: Its kcat is 0.00317 ± 0.000167 s⁻¹.

Question: And the kcat/Km ([3]; E305G)?
Answer: Its kcat/Km is 1000 M⁻¹ s⁻¹.

Question: What about the Km ([4]; E305G) of the same molecule?
Answer: The Km was 5.7 ± 4.6 µM.

Question: What about the kcat ([4]; E305G) of the same molecule?
Answer: Its kcat is 0.00117 ± 0.000333 s⁻¹.

Question: And the kcat/Km ([4]; E305G)?
Answer: Its kcat/Km is 167 M⁻¹ s⁻¹.

Question: What about the Km ([5]; E305G) of the same molecule?
Answer: Its Km is 9.4 ± 3.7 µM.

Question: What about the kcat ([5]; E305G) of the same molecule?
Answer: The kcat was 0.000933 s⁻¹.

Question: What about the kcat/Km ([5]; E305G) of the same molecule?
Answer: The kcat/Km was 100 M⁻¹ s⁻¹.

B3: P450 17A1 R347H variant (Homo sapiens; R347H) (protein)
chain: T3 sequence (looked up) with R347H
Question: Which Km ([3]; R347H) does the source give for B3 here?
Answer: The Km was 8.1 ± 2.2 µM.

Question: And the kcat ([3]; R347H)?
Answer: Its kcat is 0.003 ± 0.000333 s⁻¹.

Question: And the kcat/Km ([3]; R347H)?
Answer: Its kcat/Km is 333 M⁻¹ s⁻¹.

Question: What about the Km ([4]; R347H) of the same molecule?
Answer: The Km was 1.5 ± 0.5 µM.

Question: And the kcat ([4]; R347H)?
Answer: Its kcat is 0.00883 ± 0.000667 s⁻¹.

Question: And the kcat/Km ([4]; R347H)?
Answer: Its kcat/Km is 5830 M⁻¹ s⁻¹.

Question: And the Km ([5]; R347H)?
Answer: Its Km is 4.8 ± 1.7 µM.

Question: And the kcat ([5]; R347H)?
Answer: Its kcat is 0.000717 s⁻¹.

Question: What about the kcat/Km ([5]; R347H) of the same molecule?
Answer: Its kcat/Km is 150 M⁻¹ s⁻¹.

B4: P450 17A1 R358Q variant (Homo sapiens; R358Q) (protein)
chain: T3 sequence (looked up) with R358Q
Question: For B4, which Km ([3]; R358Q) is on record?
Answer: The Km was 4.6 ± 0.7 µM.

Question: And the kcat ([3]; R358Q)?
Answer: The kcat was 0.00717 ± 0.000333 s⁻¹.

Question: What about the Km ([4]; R358Q) of the same molecule?
Answer: Its Km is 2.6 ± 1.4 µM.

Question: And the kcat ([4]; R358Q)?
Answer: The kcat was 0.00967 ± 0.0015 s⁻¹.

Question: And the kcat/Km ([4]; R358Q)?
Answer: Its kcat/Km is 3670 M⁻¹ s⁻¹.

Question: And the Km ([5]; R358Q)?
Answer: Its Km is 10 ± 5 µM.

Question: And the kcat ([5]; R358Q)?
Answer: Its kcat is 0.000933 s⁻¹.

Question: And the kcat/Km ([5]; R358Q)?
Answer: The kcat/Km was 83.3 M⁻¹ s⁻¹.

B5: Alexa 488-T70C-b5 (natural protein, human)
chain: MAEQSDEAVKYYTLEEIQKHNHSKSTWLILHHKVYDLTKFLEEHPGGEEVLREQAGGDATENFEDVGHSCDAREMSKTFIIGELHPDDRPKLNKPPETLITTIDSSSS
modifications: Alexa Fluor 488 maleimide conjugated to the cysteine of T70C; extent of modification 74%
notes: cytochrome b5 (CYB5A, b5), human, T70C; printed theoretical mass 16.9 kDa; Heme protein; also called labeled b5; fluorescently labeled variant of human b5
Question: For B5, which Kd (WT P450 17A1 [6]) is on record?
Answer: The Kd was 12 ± 5 nM.

Question: And the Kd (WT P450 17A1 [7])?
Answer: The Kd was 5.8 ± 2.3 nM.

Question: And the koff (WT P450 17A1 [8])?
Answer: Its koff is 1.9 ± 0.2 s⁻¹.

Question: What about the Kd (WT P450 17A1 [9]) of the same molecule?
Answer: Its Kd is 6 ± 1 nM.

Question: And the Kd (WT P450 17A1 [10])?
Answer: Its Kd is 2.2 ± 1 nM.

Question: And the Kd (WT P450 17A1 [11])?
Answer: The Kd was 2.5 ± 0.6 nM.

B6: Blue-T70C-b5: T70C-b5 labeled with the proprietary NanoTemper BLUE fluorescent dye (protein, UniProt P00167 2-134, looked up, variant T70C)
Cytochrome b5: AEQSDEAVKYYTLEEIQKHNHSKSTWLILHHKVYDLTKFLEEHPGGEEVLREQAGGDATENFEDVGHSCDAREMSKTFIIGELHPDDRPKLNKPPETLITTIDSSSSWWTNWVIPAISAVAVALMYRLYMAED
modifications: NanoTemper BLUE fluorescent dye label
Question: With B6 as the molecule, how does the “stimulation of lyase activities” value (WT P450 17A1 [12]) read?
Answer: The value was “stimulated the lyase reactions”.

Reference: publication PMC8080067, “Tight binding of cytochrome b5 to cytochrome P450 17A1 is a critical feature of stimulation of C21 steroid lyase activity and androgen synthesis” (The Journal of Biological Chemistry, 2021)
